These results are taken from patent US20180057581A1 (MorphoSys, published 2018).

What all share (test): MSD specificity profiling, coated protein, Camille at 100 nM
In one test the target is T1, Fibrinogen (bovine) (bovine, UniProt P02672 20-615; P02676 1-468; P12799 25-444).
T1 sequence (looked up) 1: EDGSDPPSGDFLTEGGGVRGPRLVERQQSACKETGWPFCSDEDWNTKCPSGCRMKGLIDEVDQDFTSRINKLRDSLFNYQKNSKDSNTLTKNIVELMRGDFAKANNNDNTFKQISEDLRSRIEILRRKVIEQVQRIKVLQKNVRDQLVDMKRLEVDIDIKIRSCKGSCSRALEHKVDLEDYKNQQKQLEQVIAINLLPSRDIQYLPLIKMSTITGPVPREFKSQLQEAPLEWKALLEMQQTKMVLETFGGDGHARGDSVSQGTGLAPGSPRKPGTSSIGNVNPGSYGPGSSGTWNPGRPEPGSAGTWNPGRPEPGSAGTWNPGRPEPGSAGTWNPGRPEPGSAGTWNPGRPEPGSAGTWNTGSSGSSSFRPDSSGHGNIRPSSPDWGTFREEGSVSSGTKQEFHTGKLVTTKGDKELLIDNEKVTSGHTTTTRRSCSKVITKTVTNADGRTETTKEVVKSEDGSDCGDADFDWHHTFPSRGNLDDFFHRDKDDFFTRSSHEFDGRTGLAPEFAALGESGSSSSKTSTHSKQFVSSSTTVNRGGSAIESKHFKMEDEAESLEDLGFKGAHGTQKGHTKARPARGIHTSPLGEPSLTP
T1 sequence (looked up) 2: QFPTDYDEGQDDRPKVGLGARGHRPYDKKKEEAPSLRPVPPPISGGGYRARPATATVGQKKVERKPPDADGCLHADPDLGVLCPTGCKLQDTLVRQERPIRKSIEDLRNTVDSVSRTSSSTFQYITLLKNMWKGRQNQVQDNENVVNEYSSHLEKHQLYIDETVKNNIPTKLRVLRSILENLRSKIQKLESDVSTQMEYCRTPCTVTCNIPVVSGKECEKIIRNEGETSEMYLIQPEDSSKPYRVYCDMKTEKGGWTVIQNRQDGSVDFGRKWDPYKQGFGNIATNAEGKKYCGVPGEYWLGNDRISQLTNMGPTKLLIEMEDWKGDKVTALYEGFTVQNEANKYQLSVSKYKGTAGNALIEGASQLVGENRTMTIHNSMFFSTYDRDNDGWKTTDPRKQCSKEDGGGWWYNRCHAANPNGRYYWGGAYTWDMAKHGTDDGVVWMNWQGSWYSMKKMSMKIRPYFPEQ
T1 sequence (looked up) 3: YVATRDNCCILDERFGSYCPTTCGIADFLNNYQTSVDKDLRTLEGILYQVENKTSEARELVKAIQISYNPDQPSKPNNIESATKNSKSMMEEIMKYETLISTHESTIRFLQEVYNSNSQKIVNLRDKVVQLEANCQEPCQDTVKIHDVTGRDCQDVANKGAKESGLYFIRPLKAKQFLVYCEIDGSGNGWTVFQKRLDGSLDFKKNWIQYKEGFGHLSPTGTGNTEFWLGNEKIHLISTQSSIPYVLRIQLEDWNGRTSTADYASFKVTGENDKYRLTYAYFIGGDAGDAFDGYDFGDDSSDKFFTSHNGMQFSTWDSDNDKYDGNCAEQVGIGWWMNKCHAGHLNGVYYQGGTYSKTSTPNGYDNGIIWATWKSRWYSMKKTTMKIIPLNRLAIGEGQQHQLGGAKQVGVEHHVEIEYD
The procedure:
(§1) For this specificity profiling test the different proteins and controls were coated on two 384-well MSD plates with a concentration of 1 μg/ml at 4° C. over night. Plates were blocked with BSA and washed three times with PBS with 0.05% (v/v) Tween 20. Antibody samples were diluted to 100 nM and 10 nM in assay buffer (PBS with 0.5% (w/v) BSA, 0.05% (v/v) Tween 20). […] Samples and controls were incubated for three hours at room temperature. The plates were washed three times and 30 μl detection antibody (ECL-labeled anti-human Fab) were added per well and incubated for 1 h. After washing, MSD Read Buffer T with surfactant was added and electrochemiluminescence signals were detected using a Sector Imager 6000 (Meso Scale Discovery, Gaithersburg, Md., USA).

The target in a further test is T2, RNase B (cow) (cow, UniProt P61823 27-150).
T2 sequence (looked up): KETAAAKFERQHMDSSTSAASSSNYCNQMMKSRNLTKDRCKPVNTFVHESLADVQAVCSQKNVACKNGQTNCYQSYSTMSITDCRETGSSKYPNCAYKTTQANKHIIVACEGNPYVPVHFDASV
The procedure: as §1

The target in a further test is T3, Ovalbumin (chicken) (chicken, UniProt P01012 2-386).
T3 sequence (looked up): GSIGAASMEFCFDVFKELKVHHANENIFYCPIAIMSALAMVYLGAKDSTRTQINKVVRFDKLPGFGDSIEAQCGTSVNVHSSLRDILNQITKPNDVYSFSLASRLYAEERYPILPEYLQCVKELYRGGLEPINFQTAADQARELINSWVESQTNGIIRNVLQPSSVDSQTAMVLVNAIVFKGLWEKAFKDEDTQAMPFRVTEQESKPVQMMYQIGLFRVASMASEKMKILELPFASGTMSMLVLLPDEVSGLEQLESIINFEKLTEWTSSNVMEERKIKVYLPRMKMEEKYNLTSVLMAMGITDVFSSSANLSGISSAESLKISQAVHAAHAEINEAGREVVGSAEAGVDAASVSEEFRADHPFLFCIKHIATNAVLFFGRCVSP
The procedure:
as §1

Another test addresses Antitrypsin (human) (human, UniProt P01009 25-418). The procedure: as §1
The next test addresses Cytokine 1 (human) (human). The procedure: as §1
In test [1] the target is Cell surface receptor 1 (human) (human). The procedure: as §1
Test [2] concerns the target Aminogylcosidase (Aspergillus niger) (Aspergillus niger). The protocol:
as §1

For the next test, the target named is Cytokine 2 (human) (human). The protocol:
as §1

Test [3] addresses Cell surface receptor 2 (human) (human). The protocol: as §1
The target of test [4] is Anti-human Fab (Dianova, # 109-005-097). The procedure: as §1
For a further test, the target named is T4, RNase A (cow) (cow, UniProt P61823 27-150).
T4 sequence (looked up): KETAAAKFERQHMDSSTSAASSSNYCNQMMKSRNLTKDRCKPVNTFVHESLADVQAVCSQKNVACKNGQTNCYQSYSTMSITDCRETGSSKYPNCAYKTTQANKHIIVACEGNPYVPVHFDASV
The protocol:
as §1

Antitrypsin (human), sequence (P01009 25-418 limits assumed): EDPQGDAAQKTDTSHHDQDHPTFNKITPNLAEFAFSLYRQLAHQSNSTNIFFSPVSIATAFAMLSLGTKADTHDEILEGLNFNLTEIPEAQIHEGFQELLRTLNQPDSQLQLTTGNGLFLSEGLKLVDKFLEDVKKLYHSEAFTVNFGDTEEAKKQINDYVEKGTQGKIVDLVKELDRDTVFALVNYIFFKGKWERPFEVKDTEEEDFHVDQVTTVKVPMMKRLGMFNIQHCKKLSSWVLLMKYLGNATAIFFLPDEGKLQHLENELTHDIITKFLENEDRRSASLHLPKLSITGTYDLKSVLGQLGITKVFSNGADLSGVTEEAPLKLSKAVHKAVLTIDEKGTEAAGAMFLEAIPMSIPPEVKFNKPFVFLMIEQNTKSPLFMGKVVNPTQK
Aminogylcosidase (Aspergillus niger) (Aspergillus niger), sequence (P69328 25-640): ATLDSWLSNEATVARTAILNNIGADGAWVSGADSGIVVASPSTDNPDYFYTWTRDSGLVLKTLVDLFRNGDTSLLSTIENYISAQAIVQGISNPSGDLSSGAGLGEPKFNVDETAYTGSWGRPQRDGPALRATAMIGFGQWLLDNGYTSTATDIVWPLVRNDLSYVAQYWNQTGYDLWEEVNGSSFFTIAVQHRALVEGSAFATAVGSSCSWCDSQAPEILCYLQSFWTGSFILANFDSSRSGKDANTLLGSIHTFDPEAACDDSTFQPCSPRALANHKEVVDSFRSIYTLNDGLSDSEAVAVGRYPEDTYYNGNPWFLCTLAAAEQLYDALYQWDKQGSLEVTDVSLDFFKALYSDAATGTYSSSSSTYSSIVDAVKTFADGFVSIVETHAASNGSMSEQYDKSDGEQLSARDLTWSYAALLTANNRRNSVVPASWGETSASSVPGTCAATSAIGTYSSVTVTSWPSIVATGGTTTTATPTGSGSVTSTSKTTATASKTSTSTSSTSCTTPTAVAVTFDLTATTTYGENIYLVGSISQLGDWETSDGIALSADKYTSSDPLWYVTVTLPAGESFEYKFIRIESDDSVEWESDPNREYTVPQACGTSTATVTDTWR

B1: Camille (format not stated) (antibody, V domains shown)
VH: QVQLQQSGPGLVKPSQTLSLTCAISGESVSTSSAAWNWIRQSPSRGLEWLGRTYYRSKWKHEYAVSVKSRITINPDTSKNQFSLQLNSVTPEDTAVYYCARDRYYYSAFDYWGQGTLVTVSS
VL: QSALTQPASVSGSPGQSITISCTGTSSDVGGYNSVSWYQQHPGKAPKLLIYAVSNRPSGVSNRFSGSKSGNTASLTISGLQAEDEADYYCASYDERFTRVFGGGTKLTVLG
notes: also called Antibody Camille
As to B1, the “signal normalized to reference antibody MOR03207” value (in the test with Fibrinogen (bovine); in the test with RNase B (cow); with Ovalbumin (chicken); with Antitrypsin (human); in the test with Cytokine 1 (human); in test [1]) was 1 ratio each time. Besides, the “signal normalized to reference antibody MOR03207” value in test [2] worked out at 1 ratio; with Cytokine 2 (human), 2 ratio; in test [3], 1 ratio; in test [4] it was 1 ratio; with RNase A (cow) it was 1 ratio.
